In assay [1] the target is V-0021 (…)/HLA-E 01:03 monomer complex (human). Briefly: ELISA; monomer complex 0.25 µg/ml on neutravidin plate, antibody 1 µg/ml. In general terms: In an ELISA, binding on a coated surface is turned into a signal by an enzyme label.
Assay [2] addresses V-0038 (…)/HLA-E 01:03 monomer complex (human). Description: ELISA; monomer complex on neutravidin plate.
For assay [3], the target named is 0003-A2 (…)/HLA-A2 02:01 monomer complex (human). Description: ELISA; monomer complex on neutravidin plate.
Assay [4] addresses V-0013 (…)/HLA-E 01:03 monomer complex (human). Briefly: ELISA; monomer complex on neutravidin plate.
The target of assay [5] is LL-001 (…)/HLA-E 01:03 monomer complex (human). Briefly: ELISA; monomer complex on neutravidin plate.
For assay [6], the target named is 0002-A2 (…)/HLA-A2 02:01 monomer complex (human). Description: ELISA; monomer complex on neutravidin plate.
In assay [7] the target is T1, V-0018 (…)/HLA-A2 02:01 monomer complex (human).
T1 construct: also called ABI-V-0018; negative control (V-0018)
Briefly: ELISA; monomer complex on neutravidin plate.

Assay [8] concerns the target LL-002 (…)/HLA-E 01:03 monomer complex (human). Briefly: ELISA; monomer complex on neutravidin plate.
In assay [9] the target is P-0550 (…)/HLA-E monomer complex (human). Briefly: ELISA; monomer complex on neutravidin plate.
Assay [10] deals with T2, V-0025 (…)/HLA-A2 02:01 monomer complex (human).
T2 construct: also called V-0025 on HLA-A2*02:01
Description: ELISA; monomer complex on neutravidin plate.

Assay [11] concerns the target T3, HLA-G signal peptide/HLA-E*0103 complex (ABI-V-0025; …) (human).
T3 construct: also called 0025-E 01:03 monomer complex; V-0025 HLA-E 01:03 monomer complex
Briefly: label-free (ResoSens), against the Octet value of R4. For orientation: BLI is a label-free optical method that tracks binding on a fibre tip over time.
Description: (§1) The method for determining the affinity was as follows. Thermofisher Capture Select™ Biotin anti-IgG-Fc (Hu) (diluted PBS buffer) was immobilized on neutravidin coated Bionetic label-free microarray plate at 5 ug/ml until binding reached equilibrium. Plate subsequently was washed 3× with 0.1% BSA, 0.1% Tween20, PBS dilution/wash buffer. […] Plate was subsequently washed in dilution/wash buffer 3×. V-0025 HLA-E 01:03 monomer complex (serial dilutions starting at 5 ug/ml in dilution/wash buffer) was added to wells and allowed to incubate for 20 minutes to determine the binding association and then immediately followed by dissociation (dilution/wash buffer) for approximately 25 minutes. Binding affinity calculated using Tracedrawer kinetic analysis software.

For assay [12], the target named is T3, HLA-G signal peptide/HLA-E*0103 complex …. Briefly: label-free (ResoSens, Resonant Sensors); ABX0020 captured by anti-IgG-Fc, V-0025 HLA-E 01:03 monomer in solution (monovalent).
Description: as §1
Assay [13] shares this target. Briefly: label-free (ResoSens); V-0025 HLA-E 01:03 monomer on neutravidin plate, ABX0040 in solution.

The text below walks through data of patent US20240026007A1 (Boehringer Ingelheim, published 2024).

Bounds are passed on as bounds.

B1: ABX0020 (antibody, human IgG1, kappa)
heavy: not shown
light: DIQMTQSPSSLSASVGDRVTITCRASQSISSYLNWYQQKPGKAPKLLIYAASSLQSGVPSRFSGSGSGTDFTLTISSLQPEDFATYYCQQSATYWDMFGQGTKVEIKRTVAAPSVFIFPPSDEQLKSGTASVVCLLNNFYPREAKVQWKVDNALQSGNSQESVTEQDSKDSTYSLSSTLTLSKADYEKHKVYACEVTHQGLSSPVTKSFNRGEC
notes: also called R2-A12 hIgG1
Broadly, the Kd is the concentration at which binding is half-saturated. As for B1, the binding result in assay [1] was “binds”; in assay [2], “no binding (tested: antibody 1 µg/ml, antigen 0.25 µg/ml)”; in assay [3], “no binding (tested: antibody 1 µg/ml, antigen 0.25 µg/ml)”; in [4] it was “no binding (tested: antibody 1 µg/ml, antigen 0.25 µg/ml)”; in [5], “no binding (tested: antibody 1 µg/ml, antigen 0.25 µg/ml)”; in assay [6], “no binding (tested: antibody 1 µg/ml, antigen 0.25 µg/ml)”. Moreover, the binding result in [7] was “no binding (tested: antibody 1 µg/ml, antigen 0.25 µg/ml)”; in [8], “no binding (tested: antibody 1 µg/ml, antigen 0.25 µg/ml)”; in [9], “no binding (tested: antibody 1 µg/ml, antigen 0.25 µg/ml)”; in [10], “no binding (tested: antibody 1 µg/ml, antigen 0.25 µg/ml)”. Besides, the “fold improvement of KD over the R4 clone” value in [11] was above 200 fold. Also, in [12], the Kd turned out to be 1.87 nM.

B2: ABX0040 (bispecific antibody)
chain 1: not shown
chain 2: B1 light
chain 3: EVQLVESGGGLVQPKGSLKLSCAASGFTFNTYAMNWVRQAPGKGLEWVARIRSKYNNYATYYADSVKDRFTISRDDSQSILYLQMNNLKTEDTAMYYCVRHGNFGNSYVSWFAYWGQGTLVTVSS
chain 4: QAVVTQESALTTSPGETVTLTCRSSTGAVTTSNYANWVQEKPDHLFTGLIGGTNKRAPGVPARFSGSLIGDKAALTITGAQTEDEAIYFCALWYSNLWVFGGGTKLTVL
The molecule B2 gave a Kd in [13] of 1.57 nM.
